Data published in patent US20230272390A1, “COMPOSITIONS AND METHODS FOR HEMOGLOBIN PRODUCTION” (THE CHILDREN'S HOSPITAL OF PHILADELPHIA, priority 2020, published 2023).

Columns and labels:
[1] = system: motifs from the CHD4 promoter and enhancer sites; experiment: EMSA with COS-7 nuclear extracts and radiolabeled probes; assay type: binding, human; conditions: COS nuclear extracts, FLAG-tagged constructs, radiolabeled CHD4 motif probes
Procedure: Nuclear extracts were prepared from COS-7 cells transiently transfected with ZNF410 full-length and ZNF410 ZF1-5 plasmids. FuGENE® 6 (Promega) was used to transfect 5 μg of vector into 100 mm plates of COS-7 cells. A pcDNA3 empty vector was used as control. Cells were harvested 48 hours after transfection and nuclear extracts prepared (Andrews, et al. (1991) Nucleic Acids Res., 19:2499).
EMSAs were performed (Crossley, et al. (1996) Mol. Cell Biol., 16:1695-1705). The sense oligonucleotide was labelled with [γ-^32P]-adenosine triphosphate (Perkin Elmer) and boiled at 100° C. for 1 minute before addition of the antisense oligonucleotide and annealing of probe via slow cooling from 100° C. to room temperature. Probes were purified using Quick Spin Columns for radio-labelled DNA Purification (Roche). Nuclear extracts were harvested from COS-7 cells and samples and loaded on a 6% native polyacrylamide gel in TBE buffer (45 mM Tris, 45 mM boric acid, 1 mM EDTA). A ‘COS empty’ control lane was included to show binding of any background endogenous protein to the probe. […] Gels were run at 250 V for 1 hour, 45 minutes at 4° C. then dried under vacuum. […]
ZNF410 contains five tandem C2H2-type zinc fingers (ZFs) potentially involved in DNA binding (FIG. 5A). […] Direct DNA binding by full length (FL) ZNF410 to sequences found at the CHD4 gene was assessed by electrophoretic mobility shift assays (EMSAs). […]

endogenous ZNF410 = experiment: ChIP-seq in HUDEP-2 cells overexpressing HA-tagged ZF constructs; assay type: cell-based, human; conditions: overexpression in HUDEP-2 cells
Procedure: HUDEP-2 cells at Day 3 of differentiation, primary human CD34+ cells at Day 9 differentiation (similar to the polychromatic stage) and G1E-ER4 cells at 24 hours differentiation were crosslinked with 1% formaldehyde at room temperature for 10 min and quenched by the addition of glycine. ChIP experiments were performed (Hsu, et al. (2017) Mol. Cell., 66:102-116). ZNF410 (Proteintech, Cat. #14529-1-AP), HA (Sigma, Cat. #11815016001) and H3K27ac (Abcam, Cat. #ab4729) antibodies were used for ChIP. ChIP-seq libraries were prepared using TruSeq® ChIP-seq Sample preparation Kit (part #IP-202-1012) according to the manufacturer's instructions. Reads were aligned with Bowtie2 local alignment to allow the mapping of indels (Langmead, et al. (2012) Nat. Methods 9:357-359). […]
Reads were aligned against reference genome hg38 for human and genome mm10 for mouse using Bowtie2 (v2.2.9) and the default parameters. […] Reads aligned to mitochondria, random contigs and ENCODE blacklisted regions were also removed for downstream analysis. Genome coverage files were generated and normalized to 1 million reads per library using bedtools (v2.25.0), and then converted to bigwig format for visualization using the UCSC Toolkit. […] Read density plot and heatmap around selected peaks were generated using Deeptools (version 2.5.7, “computeMatrix” and “plotHeatmap”). […]

B1: ZF1-5: fragment of human ZNF410 comprising five zinc finger domains ZF1-5 (residues 217-366); dominant-negative when overexpressed (protein)
chain: KKLKCTVEGCDRTFVWPAHFKYHLKTHRNDRSFICPAEGCGKSFYVLQRLKVHMRTHNGEKPFMCHESGCGKQFTTAGNLKNHRRIHTGEKPFLCEAQGCGRSFAEYSSLRKHLVVHSGEKPHQCQVCGKTFSQSGSRNVHMRKHHLQLG
modifications: left off: small tags and cut ends
notes: fragment of human ZNF410 comprising five zinc finger domains ZF1-5 (residues 217-366); dominant-negative when overexpressed
DNA binding in EMSA [1]: strong DNA binding | interference with endogenous ZNF410 binding (endogenous ZNF410; ChIP-seq): markedly interfered | chromatin occupancy (endogenous ZNF410; HA ChIP-seq): bound to the CHD4 regulatory regions and to the other ZNF410 targets
